Molecular target: LvPrx4 (endogenous, shrimp hemocytes) (Penaeus vannamei (endogenous in hemocytes))
Test: Western blot after SDS-PAGE

stoichiometry N: 2
Substance: LvPrx4 (endogenous, shrimp hemocytes) (natural protein)
